This is an account of results in paper PMC5712780, “Ymr210wp leads to the accumulation of phospholipids and steryl esters in yeast” (Bioinformation, 2017).

Common to all, as to assay: p-nitrophenyl ester hydrolysis assay, Michaelis-Menten fit
Common to all, as to type: biochemical, Saccharomyces cerevisiae

Substrate in data set [1]: CC(=O)Oc1ccc([N+](=O)[O-])cc1
The note with it: optimum pH 7.5 and 30°C (kinetic conditions not stated); text b29 prints error ±2.95; pH 7.5; 30.0 °C. An excerpt:
(§1) p-nitrophenyl ester hydrolysis assay, Michaelis-Menten fit on Ymr210wp

Substrate in data set [2]: CCCC(=O)Oc1ccc([N+](=O)[O-])cc1
The note with it: optimum pH 7.5 and 30°C (kinetic conditions not stated); pH 7.5; 30.0 °C.
Source text: as §1

Substrate in data set [3]: CCCCCCCCCCCCCCCC(=O)Oc1ccc([N+](=O)[O-])cc1
Conditions: optimum pH 8.5 and 45°C (kinetic conditions not stated); pH 8.5; 45.0 °C.
Source text: as §1

B1: Ymr210wp (Saccharomyces cerevisiae S288C) (protein)
chain: MRLKELLPNFLIVHQEVPEDPIAFKSTDKRENENKEITIPELIDTKVPELADGATDTLYGLLVNGHLQTAYGSFRHFDNIYKVQYKRMIIKYPHGGEGTVDFAVNGRSTKRRKVEKEYVPTSQPVFNGNLKRRYSYYSPDDPKLNSDDAKPMLIILHGLTGGSRESYVRAIVHEITTKYDFEACVFNARGCCYSAITTPLLYNGGWTNDIRYCVNDLRKRFPNRKFYMMGFSLGASIMTNYLGEESDRTKIECAISVSNPFDLYNSAYFINSTPMGSRFYSPALGHNLLRMVRNHLSTLEENPDFKDVIEKHLKKIRTVRQFDNLLTGPMFGYKNAEEYYKNASSYKRIPGIRTPFIALHAQDDPIVGGDLPIDQIKSNPYTLLLETSTGGHVGWFKDRSGRRWYAEPLCRFLKIFHDEITVKGLKPDLENVQLPDPNCEPIATTFRAN
notes: YMR210w cloned in pYES2/CT, His-tagged, expressed in S. cerevisiae BY4741, Ni-NTA purified
Regarding B1, the Km stood at 11.51 ± 1.09 mM in data set [1], 7.28 ± 1.61 mM in data set [2] and 13.19 ± 1.03 mM in data set [3].
